# B1: pRK CHOP (protein, UniProt P35638 1-169, looked up)
# DNA damage-inducible …: MAAESLPFSFGTLSSWELEAWYEDLQEVLSSDENGGTYVSPPGNEEEESKIFTTLDPASLAWLTEEEPEPAEVTSTSQSPHSPDSSQSSLAQEEEEEDQGRTRKRKQSGHSPARAGKQRMKEKEQENERKVAQLAEENERLKQEIERLTREVEATRRALIDRMVNLHQA
# modifications: expression plasmid
# Tested on: CHOP, BiP, and DR5 mRNA in HCT116 cells
# Experiment: qPCR of UPR target transcripts (CHOP, BiP, DR5)
# Format: cell-based, Homo sapiens
# Conditions: for avg. fold induction relative to empty traffo, BiP / avg. fold induction relative to empty traffo, CHOP / avg. fold induction relative to empty traffo, DR5 total: norm to GAPDH; for 2^-(deltaCq) BiP / 2^-(deltaCq) CHOP / 2^-(deltaCq) DR5 total: vs GAPDH
# Description: Cells were grown in 6-well plates and harvested with 0.5 ml of TRIzol reagent (Life Technologies) per manufacturer’s protocol to extract RNA. For cDNA synthesis, 500 ng of total RNA was reverse transcribed with 2 μl of the SuperScript VILO master mix (Life Technologies # 11755050) in a total reaction volume of 10 μl following the manufacturer’s protocol for reaction temperature and duration. The reverse transcription product was diluted to 200 μl with 10 mM Tris-HCl pH 8.2 and used at 1:100 dilution for subsequent RT-PCR reactions.
# PCR samples were prepared as described by manufacturer’s protocols from iQ SYBR Green Supermix (BioRad #17088800).
# For each experiment, qRT-PCR reactions were set up in triplicate and run using a CFX96 Real Time System (Bio-Rad). Quantitation cycles were determined with CFX Manager 3.0 software (Bio-Rad) and then normalized to GAPDH as an internal control.
# [1] = HCT116, pRK CHOP 31 ng, Sheet1, replicate 1
molecule,measurement,setting,value
B1,"avg. fold induction relative to empty traffo, BiP","HCT116, 31 ng",0.2997 fold
same,"avg. fold induction relative to empty traffo, CHOP","HCT116, 31 ng",18.7911 fold
same,"fold induction relative to empty traffo, BiP","HCT116, 31 ng, replicate 1",0.28 fold
same,"fold induction relative to empty traffo, CHOP","HCT116, 31 ng, replicate 1",16.3851 fold
same,"fold induction relative to empty traffo, DR5 total","HCT116, 31 ng, replicate 1",0.9029 fold
same,"fold induction relative to empty traffo, BiP","HCT116, 31 ng, replicate 2",0.3243 fold
same,"fold induction relative to empty traffo, CHOP","HCT116, 31 ng, replicate 2",19.1521 fold
same,"fold induction relative to empty traffo, DR5 total","HCT116, 31 ng, replicate 2",0.9212 fold
same,"fold induction relative to empty traffo, BiP","HCT116, 31 ng, replicate 3",0.2949 fold
same,"fold induction relative to empty traffo, CHOP","HCT116, 31 ng, replicate 3",20.8362 fold
same,"fold induction relative to empty traffo, DR5 total","HCT116, 31 ng, replicate 3",2.023 fold
same,2^-(deltaCq) BiP,"HCT116, 31 ng, replicate 1",0.02437
same,2^-(deltaCq) CHOP,"HCT116, 31 ng, replicate 1",0.1729
same,2^-(deltaCq) DR5 total,"HCT116, 31 ng, replicate 1",0.01464
same,2^-(deltaCq) BiP,"HCT116, 31 ng, replicate 2",0.02822
same,2^-(deltaCq) CHOP,"HCT116, 31 ng, replicate 2",0.2021
same,2^-(deltaCq) DR5 total,"HCT116, 31 ng, replicate 2",0.01494
same,2^-(deltaCq) BiP,"HCT116, 31 ng, replicate 3",0.02567
same,2^-(deltaCq) CHOP,"HCT116, 31 ng, replicate 3",0.2199
same,2^-(deltaCq) DR5 total,"HCT116, 31 ng, replicate 3",0.0328
same,"avg. fold induction relative to empty traffo, BiP","HCT116, 62 ng",0.334 fold
same,"avg. fold induction relative to empty traffo, CHOP","HCT116, 62 ng",50.7204 fold
same,"avg. fold induction relative to empty traffo, DR5 total","HCT116, 62 ng",0.954 fold
same,"fold induction relative to empty traffo, BiP","HCT116, 62 ng, replicate 1",0.3561 fold
same,"fold induction relative to empty traffo, CHOP","HCT116, 62 ng, replicate 1",46.9347 fold
same,"fold induction relative to empty traffo, DR5 total","HCT116, 62 ng, replicate 1",0.9555 fold
same,"fold induction relative to empty traffo, BiP","HCT116, 62 ng, replicate 2",0.3335 fold
same,"fold induction relative to empty traffo, CHOP","HCT116, 62 ng, replicate 2",49.2833 fold
same,"fold induction relative to empty traffo, DR5 total","HCT116, 62 ng, replicate 2",1.032 fold
same,"fold induction relative to empty traffo, BiP","HCT116, 62 ng, replicate 3",0.3124 fold
same,"fold induction relative to empty traffo, CHOP","HCT116, 62 ng, replicate 3",55.9433 fold
same,"fold induction relative to empty traffo, DR5 total","HCT116, 62 ng, replicate 3",0.8745 fold
same,2^-(deltaCq) BiP,"HCT116, 62 ng, replicate 1",0.031
same,2^-(deltaCq) CHOP,"HCT116, 62 ng, replicate 1",0.4954
same,2^-(deltaCq) DR5 total,"HCT116, 62 ng, replicate 1",0.01549
same,2^-(deltaCq) BiP,"HCT116, 62 ng, replicate 2",0.02903
same,2^-(deltaCq) CHOP,"HCT116, 62 ng, replicate 2",0.5202
same,2^-(deltaCq) DR5 total,"HCT116, 62 ng, replicate 2",0.01673
same,2^-(deltaCq) BiP,"HCT116, 62 ng, replicate 3",0.02719
same,2^-(deltaCq) CHOP,"HCT116, 62 ng, replicate 3",0.5905
same,2^-(deltaCq) DR5 total,"HCT116, 62 ng, replicate 3",0.01418
same,"avg. fold induction relative to empty traffo, BiP","HCT116, 125 ng",0.5304 fold
same,"avg. fold induction relative to empty traffo, CHOP","HCT116, 125 ng",220.701 fold
same,"avg. fold induction relative to empty traffo, DR5 total","HCT116, 125 ng",1.17 fold
same,"fold induction relative to empty traffo, BiP","HCT116, 125 ng, replicate 1",0.6342 fold
same,"fold induction relative to empty traffo, CHOP","HCT116, 125 ng, replicate 1",230.561 fold
same,"fold induction relative to empty traffo, DR5 total","HCT116, 125 ng, replicate 1",1.242 fold
same,"fold induction relative to empty traffo, BiP","HCT116, 125 ng, replicate 2",0.5274 fold
same,"fold induction relative to empty traffo, CHOP","HCT116, 125 ng, replicate 2",173.762 fold
same,"fold induction relative to empty traffo, DR5 total","HCT116, 125 ng, replicate 2",1.206 fold
same,"fold induction relative to empty traffo, BiP","HCT116, 125 ng, replicate 3",0.4295 fold
same,"fold induction relative to empty traffo, CHOP","HCT116, 125 ng, replicate 3",257.78 fold
same,"fold induction relative to empty traffo, DR5 total","HCT116, 125 ng, replicate 3",1.064 fold
same,2^-(deltaCq) BiP,"HCT116, 125 ng, replicate 1",0.0552
same,2^-(deltaCq) CHOP,"HCT116, 125 ng, replicate 1",2.434
same,2^-(deltaCq) DR5 total,"HCT116, 125 ng, replicate 1",0.02013
same,2^-(deltaCq) BiP,"HCT116, 125 ng, replicate 2",0.04591
same,2^-(deltaCq) CHOP,"HCT116, 125 ng, replicate 2",1.834
same,2^-(deltaCq) DR5 total,"HCT116, 125 ng, replicate 2",0.01955
same,2^-(deltaCq) BiP,"HCT116, 125 ng, replicate 3",0.03739
same,2^-(deltaCq) CHOP,"HCT116, 125 ng, replicate 3",2.7208
same,2^-(deltaCq) DR5 total,"HCT116, 125 ng, replicate 3",0.01725
same,"avg. fold induction relative to empty traffo, BiP","HCT116, 250 ng",0.5014 fold
same,"avg. fold induction relative to empty traffo, CHOP","HCT116, 250 ng",408.627 fold
same,"avg. fold induction relative to empty traffo, DR5 total","HCT116, 250 ng",0.9069 fold
same,"fold induction relative to empty traffo, BiP","HCT116, 250 ng, replicate 1",0.6408 fold
same,"fold induction relative to empty traffo, CHOP","HCT116, 250 ng, replicate 1",391.947 fold
same,"fold induction relative to empty traffo, DR5 total","HCT116, 250 ng, replicate 1",0.8794 fold
same,"fold induction relative to empty traffo, BiP","HCT116, 250 ng, replicate 2",0.4446 fold
same,"fold induction relative to empty traffo, CHOP","HCT116, 250 ng, replicate 2",418.188 fold
same,"fold induction relative to empty traffo, DR5 total","HCT116, 250 ng, replicate 2",0.9861 fold
same,"fold induction relative to empty traffo, BiP","HCT116, 250 ng, replicate 3",0.4188 fold
same,"fold induction relative to empty traffo, CHOP","HCT116, 250 ng, replicate 3",415.746 fold
same,"fold induction relative to empty traffo, DR5 total","HCT116, 250 ng, replicate 3",0.8551 fold
same,2^-(deltaCq) BiP,"HCT116, 250 ng, replicate 1",0.05578
same,2^-(deltaCq) CHOP,"HCT116, 250 ng, replicate 1",4.1369
same,2^-(deltaCq) DR5 total,"HCT116, 250 ng, replicate 1",0.01426
same,2^-(deltaCq) BiP,"HCT116, 250 ng, replicate 2",0.0387
same,2^-(deltaCq) CHOP,"HCT116, 250 ng, replicate 2",4.414
same,2^-(deltaCq) DR5 total,"HCT116, 250 ng, replicate 2",0.01599
same,2^-(deltaCq) BiP,"HCT116, 250 ng, replicate 3",0.03645
same,2^-(deltaCq) CHOP,"HCT116, 250 ng, replicate 3",4.3881
same,2^-(deltaCq) DR5 total,"HCT116, 250 ng, replicate 3",0.01387
same,"avg. fold induction relative to empty traffo, BiP","HCT116, 500 ng",0.5375 fold
same,"avg. fold induction relative to empty traffo, CHOP","HCT116, 500 ng",1484.73 fold
same,"avg. fold induction relative to empty traffo, DR5 total","HCT116, 500 ng",1.792 fold
same,"fold induction relative to empty traffo, BiP","HCT116, 500 ng, replicate 1",0.5213 fold
same,"fold induction relative to empty traffo, CHOP","HCT116, 500 ng, replicate 1",1691.32 fold
same,"fold induction relative to empty traffo, DR5 total","HCT116, 500 ng, replicate 1",1.92 fold
same,"fold induction relative to empty traffo, BiP","HCT116, 500 ng, replicate 2",0.6638 fold
same,"fold induction relative to empty traffo, CHOP","HCT116, 500 ng, replicate 2",1384.67 fold
same,"fold induction relative to empty traffo, DR5 total","HCT116, 500 ng, replicate 2",1.724 fold
same,"fold induction relative to empty traffo, BiP","HCT116, 500 ng, replicate 3",0.4274 fold
same,"fold induction relative to empty traffo, CHOP","HCT116, 500 ng, replicate 3",1378.19 fold
same,"fold induction relative to empty traffo, DR5 total","HCT116, 500 ng, replicate 3",1.731 fold
same,2^-(deltaCq) BiP,"HCT116, 500 ng, replicate 1",0.04537
same,2^-(deltaCq) CHOP,"HCT116, 500 ng, replicate 1",17.8515
same,2^-(deltaCq) DR5 total,"HCT116, 500 ng, replicate 1",0.03114
same,2^-(deltaCq) BiP,"HCT116, 500 ng, replicate 2",0.05778
same,2^-(deltaCq) CHOP,"HCT116, 500 ng, replicate 2",14.6148
same,2^-(deltaCq) DR5 total,"HCT116, 500 ng, replicate 2",0.02796
same,2^-(deltaCq) BiP,"HCT116, 500 ng, replicate 3",0.0372
same,2^-(deltaCq) CHOP,"HCT116, 500 ng, replicate 3",14.5464
same,2^-(deltaCq) DR5 total,"HCT116, 500 ng, replicate 3",0.02807
same,"CHOP (qPCR CHOP, Sheet1)",[1],16.3851
same,"DR5 (qPCR CHOP, Sheet1)",[1],0.9029
same,"GADD34 (qPCR CHOP, Sheet1)",[1],0.958

# — article PMC7041945, “Misfolded proteins bind and activate death receptor 5 to trigger apoptosis during unresolved endoplasmic reticulum stress” (eLife, 2020)
